Data as given in patent US20060210984A1.
Blank lines part the entries; values can stand above or below the substance they belong to.

Assays:
IFN-γ (human) [1] = molecular target: IFN-γ (human) (UniProt P01579); test: sandwich microarray in flow cell, chemiluminescence, cytokine 1 ng/ml; Chip 1
IFN-γ (human) [2] = molecular target: IFN-γ (human) (UniProt P01579); test: sandwich microarray in flow cell, chemiluminescence, cytokine 1 ng/ml; Chip 2
IFN-γ (human) [3] = molecular target: IFN-γ (human) (UniProt P01579); test: sandwich microarray in flow cell, chemiluminescence, cytokine 1 ng/ml; Chip 3
IFN-γ (human) [4] = molecular target: IFN-γ (human) (UniProt P01579); test: sandwich microarray in flow cell, chemiluminescence, cytokine 1 ng/ml; Chip 4
IFN-γ (human) [5] = molecular target: IFN-γ (human) (UniProt P01579); test: sandwich microarray in flow cell, chemiluminescence, cytokine 1 ng/ml; Chip 5
IFN-γ (human) [6] = molecular target: IFN-γ (human) (UniProt P01579); test: sandwich microarray in flow cell, chemiluminescence, cytokine 1 ng/ml; AVG of Chips 1-5
IFN-γ (human) [7] = molecular target: IFN-γ (human) (UniProt P01579); test: sandwich microarray in flow cell, chemiluminescence, cytokine 1 ng/ml, divided by chip-specific PNA calibration factor; Chip 1
IFN-γ (human) [8] = molecular target: IFN-γ (human) (UniProt P01579); test: sandwich microarray in flow cell, chemiluminescence, cytokine 1 ng/ml, divided by chip-specific PNA calibration factor; Chip 2
IFN-γ (human) [9] = molecular target: IFN-γ (human) (UniProt P01579); test: sandwich microarray in flow cell, chemiluminescence, cytokine 1 ng/ml, divided by chip-specific PNA calibration factor; Chip 3
IFN-γ (human) [10] = molecular target: IFN-γ (human) (UniProt P01579); test: sandwich microarray in flow cell, chemiluminescence, cytokine 1 ng/ml, divided by chip-specific PNA calibration factor; Chip 4
IFN-γ (human) [11] = molecular target: IFN-γ (human) (UniProt P01579); test: sandwich microarray in flow cell, chemiluminescence, cytokine 1 ng/ml, divided by chip-specific PNA calibration factor; Chip 5
IFN-γ (human) [12] = molecular target: IFN-γ (human) (UniProt P01579); test: sandwich microarray in flow cell, chemiluminescence, cytokine 1 ng/ml, divided by chip-specific PNA calibration factor; AVG of Chips 1-5
IL-2 (human) [13] = molecular target: IL-2 (human) (UniProt P60568); test: sandwich microarray in flow cell, chemiluminescence, cytokine 1 ng/ml; Chip 1
IL-2 (human) [14] = molecular target: IL-2 (human) (UniProt P60568); test: sandwich microarray in flow cell, chemiluminescence, cytokine 1 ng/ml; Chip 2
IL-2 (human) [15] = molecular target: IL-2 (human) (UniProt P60568); test: sandwich microarray in flow cell, chemiluminescence, cytokine 1 ng/ml; Chip 3
IL-2 (human) [16] = molecular target: IL-2 (human) (UniProt P60568); test: sandwich microarray in flow cell, chemiluminescence, cytokine 1 ng/ml; Chip 4
IL-2 (human) [17] = molecular target: IL-2 (human) (UniProt P60568); test: sandwich microarray in flow cell, chemiluminescence, cytokine 1 ng/ml; Chip 5
IL-2 (human) [18] = molecular target: IL-2 (human) (UniProt P60568); test: sandwich microarray in flow cell, chemiluminescence, cytokine 1 ng/ml; AVG of Chips 1-5
IL-2 (human) [19] = molecular target: IL-2 (human) (UniProt P60568); test: sandwich microarray in flow cell, chemiluminescence, cytokine 1 ng/ml, divided by chip-specific PNA calibration factor; Chip 1
IL-2 (human) [20] = molecular target: IL-2 (human) (UniProt P60568); test: sandwich microarray in flow cell, chemiluminescence, cytokine 1 ng/ml, divided by chip-specific PNA calibration factor; Chip 2
IL-2 (human) [21] = molecular target: IL-2 (human) (UniProt P60568); test: sandwich microarray in flow cell, chemiluminescence, cytokine 1 ng/ml, divided by chip-specific PNA calibration factor; Chip 3
IL-2 (human) [22] = molecular target: IL-2 (human) (UniProt P60568); test: sandwich microarray in flow cell, chemiluminescence, cytokine 1 ng/ml, divided by chip-specific PNA calibration factor; Chip 4
IL-2 (human) [23] = molecular target: IL-2 (human) (UniProt P60568); test: sandwich microarray in flow cell, chemiluminescence, cytokine 1 ng/ml, divided by chip-specific PNA calibration factor; Chip 5
IL-2 (human) [24] = molecular target: IL-2 (human) (UniProt P60568); test: sandwich microarray in flow cell, chemiluminescence, cytokine 1 ng/ml, divided by chip-specific PNA calibration factor; AVG of Chips 1-5
IL-1a (human) [25] = molecular target: IL-1a (human) (UniProt P01583); test: sandwich microarray in flow cell, chemiluminescence, cytokine 1 ng/ml; Chip 1
IL-1a (human) [26] = molecular target: IL-1a (human) (UniProt P01583); test: sandwich microarray in flow cell, chemiluminescence, cytokine 1 ng/ml; Chip 2
IL-1a (human) [27] = molecular target: IL-1a (human) (UniProt P01583); test: sandwich microarray in flow cell, chemiluminescence, cytokine 1 ng/ml; Chip 3
IL-1a (human) [28] = molecular target: IL-1a (human) (UniProt P01583); test: sandwich microarray in flow cell, chemiluminescence, cytokine 1 ng/ml; Chip 4
IL-1a (human) [29] = molecular target: IL-1a (human) (UniProt P01583); test: sandwich microarray in flow cell, chemiluminescence, cytokine 1 ng/ml; Chip 5
IL-1a (human) [30] = molecular target: IL-1a (human) (UniProt P01583); test: sandwich microarray in flow cell, chemiluminescence, cytokine 1 ng/ml; AVG of Chips 1-5
IL-1a (human) [31] = molecular target: IL-1a (human) (UniProt P01583); test: sandwich microarray in flow cell, chemiluminescence, cytokine 1 ng/ml, divided by chip-specific PNA calibration factor; Chip 1
IL-1a (human) [32] = molecular target: IL-1a (human) (UniProt P01583); test: sandwich microarray in flow cell, chemiluminescence, cytokine 1 ng/ml, divided by chip-specific PNA calibration factor; Chip 2
IL-1a (human) [33] = molecular target: IL-1a (human) (UniProt P01583); test: sandwich microarray in flow cell, chemiluminescence, cytokine 1 ng/ml, divided by chip-specific PNA calibration factor; Chip 3
IL-1a (human) [34] = molecular target: IL-1a (human) (UniProt P01583); test: sandwich microarray in flow cell, chemiluminescence, cytokine 1 ng/ml, divided by chip-specific PNA calibration factor; Chip 4
IL-1a (human) [35] = molecular target: IL-1a (human) (UniProt P01583); test: sandwich microarray in flow cell, chemiluminescence, cytokine 1 ng/ml, divided by chip-specific PNA calibration factor; Chip 5
IL-1a (human) [36] = molecular target: IL-1a (human) (UniProt P01583); test: sandwich microarray in flow cell, chemiluminescence, cytokine 1 ng/ml, divided by chip-specific PNA calibration factor; AVG of Chips 1-5

UniProt P01583, sequence (P01583 113-271 limits assumed): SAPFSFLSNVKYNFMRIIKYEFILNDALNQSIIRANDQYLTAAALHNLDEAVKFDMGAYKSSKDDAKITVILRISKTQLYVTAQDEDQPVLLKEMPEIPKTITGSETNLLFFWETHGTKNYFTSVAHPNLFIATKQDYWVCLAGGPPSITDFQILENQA
UniProt P60568, sequence (P60568 21-153 limits assumed): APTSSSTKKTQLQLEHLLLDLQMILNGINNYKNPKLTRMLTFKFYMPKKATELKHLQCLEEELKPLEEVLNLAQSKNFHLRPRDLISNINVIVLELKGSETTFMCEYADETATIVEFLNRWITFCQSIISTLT
UniProt P01579, sequence (P01579 24-166 limits assumed): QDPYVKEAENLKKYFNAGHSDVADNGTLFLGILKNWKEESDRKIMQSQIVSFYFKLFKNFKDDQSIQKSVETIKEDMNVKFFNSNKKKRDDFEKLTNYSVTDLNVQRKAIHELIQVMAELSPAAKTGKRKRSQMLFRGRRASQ

chemiluminescent spot intensity (Un-Calibrated Data) (IFN-γ (human) [1]): 0 | chemiluminescent spot intensity (Un-Calibrated Data) (IFN-γ (human) [2]): 0 | chemiluminescent spot intensity (Un-Calibrated Data) (IFN-γ (human) [3]): 10 | chemiluminescent spot intensity (Un-Calibrated Data) (IFN-γ (human) [4]): 2 | chemiluminescent spot intensity (Un-Calibrated Data) (IFN-γ (human) [5]): 0 | chemiluminescent spot intensity (Un-Calibrated Data) (IFN-γ (human) [6]): 2.4 | chemiluminescent spot intensity (Calibrated Data) (IFN-γ (human) [7]): 0 | chemiluminescent spot intensity (Calibrated Data) (IFN-γ (human) [8]): 0 | chemiluminescent spot intensity (Calibrated Data) (IFN-γ (human) [9]): 10 | chemiluminescent spot intensity (Calibrated Data) (IFN-γ (human) [10]): 4.39 | chemiluminescent spot intensity (Calibrated Data) (IFN-γ (human) [11]): 0 | chemiluminescent spot intensity (Calibrated Data) (IFN-γ (human) [12]): 2.88
Substance: MAb IFN-g (monoclonal capture antibody of the anti-human IFN-γ OptEIA matched pair, BD Biosciences-Pharmingen)

chemiluminescent spot intensity (Un-Calibrated Data) (IL-2 (human) [13]): 251 | chemiluminescent spot intensity (Un-Calibrated Data) (IL-2 (human) [14]): 127 | chemiluminescent spot intensity (Un-Calibrated Data) (IL-2 (human) [15]): 441 | chemiluminescent spot intensity (Un-Calibrated Data) (IL-2 (human) [16]): 196 | chemiluminescent spot intensity (Un-Calibrated Data) (IL-2 (human) [17]): 126 | chemiluminescent spot intensity (Un-Calibrated Data) (IL-2 (human) [18]): 228 | chemiluminescent spot intensity (Calibrated Data) (IL-2 (human) [19]): 421 | chemiluminescent spot intensity (Calibrated Data) (IL-2 (human) [20]): 434 | chemiluminescent spot intensity (Calibrated Data) (IL-2 (human) [21]): 441 | chemiluminescent spot intensity (Calibrated Data) (IL-2 (human) [22]): 430 | chemiluminescent spot intensity (Calibrated Data) (IL-2 (human) [23]): 389 | chemiluminescent spot intensity (Calibrated Data) (IL-2 (human) [24]): 423
Substance: MAb IL-2 (monoclonal capture antibody of the anti-human IL-2 OptEIA matched pair, BD Biosciences-Pharmingen)

chemiluminescent spot intensity (Un-Calibrated Data) (IL-1a (human) [25]): 175 | chemiluminescent spot intensity (Un-Calibrated Data) (IL-1a (human) [26]): 95 | chemiluminescent spot intensity (Un-Calibrated Data) (IL-1a (human) [27]): 312 | chemiluminescent spot intensity (Un-Calibrated Data) (IL-1a (human) [28]): 137 | chemiluminescent spot intensity (Un-Calibrated Data) (IL-1a (human) [29]): 121 | chemiluminescent spot intensity (Un-Calibrated Data) (IL-1a (human) [30]): 168 | chemiluminescent spot intensity (Calibrated Data) (IL-1a (human) [31]): 293 | chemiluminescent spot intensity (Calibrated Data) (IL-1a (human) [32]): 325 | chemiluminescent spot intensity (Calibrated Data) (IL-1a (human) [33]): 312 | chemiluminescent spot intensity (Calibrated Data) (IL-1a (human) [34]): 301 | chemiluminescent spot intensity (Calibrated Data) (IL-1a (human) [35]): 373 | chemiluminescent spot intensity (Calibrated Data) (IL-1a (human) [36]): 321
Substance: MAb IL-1a (monoclonal capture antibody of the anti-human IL-1a OptEIA matched pair, BD Biosciences-Pharmingen)
